According to US20230084102A1 (HUMABS BIOMED, published 2023):
Like-named read-outs stand apart in the source and are kept apart here. Where no end group is shown, it is not given here. The star is where a group is joined. Biotin = O=C1N[C@H]2[C@H](CS[C@H]2CCCCC(=O)*)N1

T1: biotinylated NANP-peptide (Plasmodium falciparum)
T1 construct: also called NANP-repeat region of CSP
T1 peptide: Biotin-NANPNANPNANPNANPNA

T2: biotinylated NPDP-peptide (Plasmodium falciparum, also: biotinylated)
T2 peptide: KQPADGNPDPNANPN

T3: biotinylated NPDP19-peptide (Plasmodium falciparum)
T3 peptide: Biotin-KQPADGNPDPNANPNVDPN


What was measured:
[1] = biological target: T1, biotinylated NANP-peptide; assay: ELISA, biotinylated peptide on avidin-coated plates, titrated IgG
Protocol: (§1) To test specific antibody binding to (i) the NANP-repeat region of CSP and (ii) the N-terminal region of CSP covering the junction between the N-terminal domain and the NANP-repeats, ELISA plates were coated with 10 μg/ml of avidin (Sigma). […] The plates were washed and incubated with titrated monoclonal antibodies, followed by 1/500 AP-conjugated goat anti-human IgG (Southern Biotech) and pNPP substrate. EC50 (ng/ml) values were calculated for every sample tested by nonlinear regression analysis using the Graph Pad Prism 7 software.

[2] = biological target: T2, biotinylated NPDP-peptide; assay: as above
Protocol: as §1

[3] = biological target: T1, biotinylated NANP-peptide; assay: as above
Protocol: as §1

[4] = biological target: T2, biotinylated NPDP-peptide; assay: as above
Protocol: as §1

[5] = biological target: T3, biotinylated NPDP19-peptide; assay: ELISA, biotinylated peptide on streptavidin-coated plates
[6] = biological target: T1, biotinylated NANP-peptide; assay: as above

| Binder | EC50 [1] [mg/L] | EC50 [2] [mg/L] | EC50 [3] [mg/L] | EC50 [4] [mg/L] | binding result [5] | binding result [6] |
| --- | --- | --- | --- | --- | --- | --- |
| MGH2 (antibody, V domains shown, also called parental antibody MGH2) VH: QVQLVESGGGVVQPGGSLRLSCTASGFSFSSYAMHWVRQAPGKGLEWVAYTRYDGSNKFYLDSVQGRFTISRDNSKNTLYLEMDSLRLEDTAVYFCAKVGDGTVAGTIDYWGQGTLVTVSS VL: YIVMTQSPLSLPVTLGQPASISCRSSQSLVYSDGNTYLNWYQQRPGQSPRRLIYKVSNRDSGVPDRFSGSGSGTDFTLKISRVEAEDVGVYYCMQGTHWWTFGQGTKVEIK | 0.0279 | 0.0488 |  |  |  |  |
| MGH2variant1 (antibody, V domains shown, Expressed as IgG1; also called MGH2v1) VH: QVQLVESGGGVVQPGGSLRLSCTASGFSFSSYAMHWVRQAPGKGLEWVAYTRYDGSNKFYLDSVQGRFTISRDNSKNTLYLEMDSLRLEDTAVYFCAKVGDGTVAGTIDYWGQGTLVTVSS VL: YIVMTQSPLSLPVTLGQPASISCRSSQSLVYSDGNTYLNWYQQRPGQSPRRLIYKVSNRDSGVPDRFSGSGSGTDFTLKISRVEAEDVGVYYCMQGTHFWTFGQGTKVEIK | 0.0223 | 0.0658 |  |  |  |  |
| MGU10 (antibody, V domains shown, also called parental antibody MGU10) VH: QVQLVESGGGVVQPGRSLRLSCAASGFAFSNYGMNWVRQAPGKGLEWVAVIWHDGSLKYYTQSVKGRFTISRDNAKNTLFLQMDSLSADDTAMYYCTVWYLETPDDGFDIWGRGTMVTVSS VL: QLVLTQPPSASASLGVSVTLTCTLSHGHTSKAIAWHQQQPGKGPRYLMKVNSDGSHTKGAAVPDRFSGSTSGAERHFTISNLQSDDEADYYCQAWDSGIWVFGGGTKLTVL |  |  | 0.0343 | 0.0261 |  |  |
| MGU10variant2 (antibody, V domains shown, Expressed as IgG1; also called MGU10v2) VH: QVQLVESGGGVVQPGRSLRLSCAASGFAFSNYGMNWVRQAPGKGLEWVAVIWHDGSLKYYTQSVKGRFTISRDNAKNTLFLQMDSLSADDTAMYYCTVWYLETPDEGFDIWGRGTMVTVSS VL: QLVLTQPPSASASLGVSVTLTCTLSHGHTSKAIAWHQQQPGKGPRYLMKVNSDGSHTKGAAVPDRFSGSTSGAERHFTISNLQSDDEADYYCQAWDSGIWVFGGGTKLTVL |  |  | 0.0268 | 0.0204 | binds |  |
| MGU10variant1 (antibody, V domains shown, Expressed as IgG1 in Expi293F cells and tested as quantified culture supernatant; also called MGU10v1) VH: QVQLVESGGGVVQPGRSLRLSCAASGFAFSNYGMHWVRQAPGKGLEWVAVIWHDGSLKYYTQSVKGRFTISRDNAKNTLFLQMDSLSADDTAMYYCTVWYLETPDDGFDIWGQGTMVTVSS VL: QLVLTQPPSASASLGVSVTLTCTLSHGHTSKAIAWHQQQPGKGPRYLMKVNSDGSHTKGAAVPDRFSGSTSGAERHFTISNLQSDDEADYYCQAWDSGIWVFGGGTKLTVL |  |  | 0.0285 | 0.0225 |  |  |
| MGU10variant3 (antibody, V domains shown, Expressed as IgG1; also called MGU10v3) VH: QVQLVESGGGVVQPGRSLRLSCAASGFAFSNYGMNWVRQAPGKGLEWVAVIWHDGSLKYYTQSVKGRFTISRDNAKNTLFLQMDSLSADDTAMYYCTVWYLETPDDGFDIWGRGTMVTVSS VL: QLVLTQPPSASASLGVSVTLTCTLSHGHTSKAIAWHQQQPGKGPRYLMKVNSDGSHTKGAAVPDRFSGSTSGAERHFTISNLQSDDEADYYCQAWESGIWVFGGGTKLTVL |  |  | 0.0263 | 0.0251 |  |  |
| MGU10variant8 (antibody, V domains shown, also called MGU10v8) VH: QVQLVESGGGVVQPGRSLRLSCAASGFAFSNYGMNWVRQAPGKGLEWVAVIWHDGSLKYYTQSVKGRFTISRDNAKNTLFLQMDSLSAEDTAMYYCTVWYLETPDEGFDIWGRGTMVTVSS VL: QLVLTQPPSASASLGVSVTLTCTLSHGHTSKAIAWHQQQPGKGPRYLMKVNSDGSHTKGAAVPDRFSGSTSGAERHFTISNLQSDDEADYYCQAWDSGIWVFGGGTKLTVL |  |  |  |  | binds | binds |
